The record followed here is paper PMC5153249.

Series [1] relates to eIF3 (a Box37) (Saccharomyces cerevisiae). Description: EMSA. The conditions noted are these: mean of 2, Met-charged tRNAi, 30 mM HEPES-KOH pH 7.4, 100 mM KOAc, 3 mM Mg(OAc)2, 2 mM DTT, 1 mM GDPNP, 26 C, 2 h, native 4% THEM gel. (In EMSA bound probe runs differently from free probe, usually more slowly.)
In series [2] the test system is eIF3 (a Box6) (Saccharomyces cerevisiae). Description: EMSA. The note with it: mean of 2, Met-charged tRNAi, 30 mM HEPES-KOH pH 7.4, 100 mM KOAc, 3 mM Mg(OAc)2, 2 mM DTT, 1 mM GDPNP, 26 C, 2 h, native 4% THEM gel.
Series [3] relates to eIF3 (a H725P) (Saccharomyces cerevisiae). Briefly: EMSA. The conditions noted are these: mean of 2; Met-charged tRNAi; uncapped mRNA; 30 mM HEPES-KOH pH 7.4, 100 mM KOAc, 3 mM Mg(OAc)2, 2 mM DTT, 1 mM GDPNP, 26 C, 2 h; native 4% THEM gel.
Series [4] has as its system eIF3 (a R731I) (Saccharomyces cerevisiae). Briefly: EMSA. The note with it: mean of 2; Met-charged tRNAi; uncapped mRNA; 30 mM HEPES-KOH pH 7.4, 100 mM KOAc, 3 mM Mg(OAc)2, 2 mM DTT, 1 mM GDPNP, 26 C, 2 h; native 4% THEM gel.
Series [5] concerns eIF3 (a delta8) (Saccharomyces cerevisiae). Description: EMSA. The conditions noted are these: mean of 2, Met-charged tRNAi, 30 mM HEPES-KOH pH 7.4, 100 mM KOAc, 3 mM Mg(OAc)2, 2 mM DTT, 1 mM GDPNP, 26 C, 2 h, native 4% THEM gel.
The test system of series [6] is eIF3 (c GAP85) (Saccharomyces cerevisiae). Description: EMSA. The note with it: mean of 2, Met-charged tRNAi, 30 mM HEPES-KOH pH 7.4, 100 mM KOAc, 3 mM Mg(OAc)2, 2 mM DTT, 1 mM GDPNP, 26 C, 2 h, native 4% THEM gel.
Series [7] deals with eIF3 (c delta60) (Saccharomyces cerevisiae). Description: EMSA. The note with it: mean of 2, Met-charged tRNAi, 30 mM HEPES-KOH pH 7.4, 100 mM KOAc, 3 mM Mg(OAc)2, 2 mM DTT, 1 mM GDPNP, 26 C, 2 h, native 4% THEM gel.
In series [8] the test system is eIF3 (g KLF) (Saccharomyces cerevisiae). Briefly: EMSA. The note with it: mean of 2, Met-charged tRNAi, 30 mM HEPES-KOH pH 7.4, 100 mM KOAc, 3 mM Mg(OAc)2, 2 mM DTT, 1 mM GDPNP, 26 C, 2 h, native 4% THEM gel.
Series [9] has as its system eIF3 (i Q258R) (Saccharomyces cerevisiae). Description: EMSA. The conditions noted are these: mean of 2, Met-charged tRNAi, 30 mM HEPES-KOH pH 7.4, 100 mM KOAc, 3 mM Mg(OAc)2, 2 mM DTT, 1 mM GDPNP, 26 C, 2 h, native 4% THEM gel.
Series [10] deals with eIF3 WT (a/b/c/i/g) (Saccharomyces cerevisiae). Description: EMSA. The conditions noted are these: Met-charged tRNAi, 30 mM HEPES-KOH pH 7.4, 100 mM KOAc, 3 mM Mg(OAc)2, 2 mM DTT, 1 mM GDPNP, 26 C, 2 h, native 4% THEM gel.
Series [11] deals with eIF3 a/b/c sub-complex (Saccharomyces cerevisiae). Description: EMSA. The note with it: mean of 2, Met-charged tRNAi, 30 mM HEPES-KOH pH 7.4, 100 mM KOAc, 3 mM Mg(OAc)2, 2 mM DTT, 1 mM GDPNP, 26 C, 2 h, native 4% THEM gel.
The test system of series [12] is eIF3 (c Box12-SPW) (Saccharomyces cerevisiae). Description: EMSA. The note with it: mean of 2; Met-charged tRNAi; 30 mM HEPES-KOH pH 7.4, 100 mM KOAc, 3 mM Mg(OAc)2, 2 mM DTT, 1 mM GDPNP, 26 C, 2 h; native 4% THEM gel.
For series [13], the target named is 48S pre-initiation complex (40S, eIF1, eIF1A, ternary complex, AUG-containing model mRNA) (S. cerevisiae) (UniProt P32911). Briefly: other; 48S PIC, + mRNA.
Series [14] deals with 43S pre-initiation complex (40S ribosomal subunit, eIF1, eIF1A and eIF2•GDPNP•Met-tRNAi ternary complex); called 48S PIC when AUG-containing model mRNA is added (yeast) (UniProt P32911). Briefly: other; 43S PIC, no mRNA.
Series [15] has the same target. Description: native gel or EMSA; eIF3 (30-500 nM) titrated into 48S PICs: 1 µM uncapped AUG-containing model mRNA, 20 nM 40S, 1 µM eIF1, 1 µM eIF1A, 200 nM eIF2, 1 mM GDPNP•Mg2+, 2 nM [35S]-Met-tRNAi; 26 °C, 2 h; apparent KD from a Hill fit.
The target is the same in series [16]. Description: native gel or EMSA; eIF3 (30-500 nM) titrated into 43S PICs without mRNA: 30 nM 40S, 1 µM eIF1, 1 µM eIF1A, 200 nM eIF2, 1 mM GDPNP•Mg2+, 2 nM [35S]-Met-tRNAi; 1X Recon buffer (30 mM HEPES-KOH pH 7.4, 100 mM KOAc pH 7.6, 3 mM Mg(OAc)2, 2 mM DTT); 26 °C, 2 h; apparent KD from a Hill fit, free eIF3 corrected for free ….

For “48S PIC (40S rRNA + Met-tRNAi + AUG model mRNA)”, the dissociation constant (Kd) stood at 83.5 nM in series [1] (uncapped mRNA); 38 nM in [2] (uncapped mRNA); 62.5 nM in [3]; 50 nM in series [4]; 88.5 nM in [5] (uncapped mRNA); 38 nM in [6] (uncapped mRNA). Moreover, the Kd was 46.5 nM in series [7] (uncapped mRNA); 52.5 nM in series [8] (uncapped mRNA); 48.5 nM in series [9] (uncapped mRNA); 37.5 nM in [10] (mean of 2, uncapped mRNA); 108 nM in series [11] (uncapped mRNA).

43S PIC (40S rRNA + Met-tRNAi): the dissociation constant Kd in series [1] stood at 59.5 nM; in [2] it was 35 nM; in [5] it was 87 nM; in [12] it was 66.5 nM; in [6] (upper limit) it was 26.5 nM; in series [7] (upper limit), 24 nM. Moreover, the dissociation constant Kd in series [8] (upper limit) was found to be 21.5 nM; in series [9] (upper limit) it was 30 nM; in series [10] (mean of 43, 24, text <=38 nM, upper limit) it was 33.5 nM; in [11], 92.5 nM.

With “eIF3a/b/c sub-complex lacking the i and g subunits (eIF3 purified from eIF3i DDKK cells) (from UniProt P38249 1-964; P06103 1-763; P32497 1-812)”, the Kd in [13] amounted to 109 nM; in [14], 90 nM. Besides, the fold decrease of apparent affinity against WT eIF3 turned out to be 3 fold in series [15] and 2 fold in [16].

Usually Kd stands for the equilibrium constant for the complex coming apart.
